Reference: article PMC9637899
Numbering of substitutions follows the chain as printed. In names and notes the source's numbering stands.

T1: ElpQ_(181–343)
T1 chain: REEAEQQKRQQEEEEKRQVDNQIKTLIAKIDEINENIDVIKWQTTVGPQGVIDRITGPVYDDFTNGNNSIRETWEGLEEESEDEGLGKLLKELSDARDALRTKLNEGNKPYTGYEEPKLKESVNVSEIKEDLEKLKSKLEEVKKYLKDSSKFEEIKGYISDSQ

B1: activated C1s–CCP1–CCP2–SP, P09871 E326A; D358A; K575A; R576A; R581A; K583A (protein)
chain: EPTMYGEILSPNYPQAYPSEVEKSWDIEVPEGYGIHLYFTHLDIELSENCAYDSVQIISGDTEEGRLCGQRSSNNPHSPIVEEFQVPYNKLQVIFKSDFSNEERFTGFAAYYVATDINECTDFVDVPCSHFCNNFIGGYFCSCPPEYFLHDDMKNCGVNCSGDVFTALIGEIASPNYPKPYPENSRCEYQIRLEKGFQVVVTLRREDFDVEAADSAGNCLDSLVFVAGDRQFGPYCGHGFPGPLNIETKSNALDIIFQTDLTGQKKGWKLRYHGDPMPCPKEDTPNSVWEPAKAKYVFRDVVQITCLDGFAVVEGRVGATSFYSTCQSNGKWSNSKLKCQPVACGIPESIENGKVEDPESTLFGSVIRYTCEEPYYYMENGGGGEYHCAGNGSWVNEVLGPELPKCVPVCGVPREPFEEKQRIIGGSDADIKNFPWQVFFDNPWAGGALINEYWVLTAAHVVEGNREPTMYVGSTSVQTSRLAKSKMLTPEHVFIHPGWKLLEVPEGRTNFDNDIALVRLKDPVKMGPTVSPICLPGTSSDYNLMDGDLGLISGWGRTEAADRAVALAAARLPVAPLRKCKEVKVEKPTADAEAYVFTPNMICAGGEKGMDSCKGDSGGAFAVQDPNDKTKFYAAGLVSWGPQCGTYGLYTRVKNYVDWIMKTMQENSTPRED
B2: activated C1s–CCP1–CCP2–SP, P09871 K575A; R576A; R581A; K583A (protein)
chain: B1 chain with A311E, A343D

Target: T1, ElpQ_(181–343)
Experiment: SPR
Conditions: chain shown with the change; steady-state response at the highest analyte concentration plotted (about 5e-7 M on the x axis); ElpQ181-343 immobilized, C1s construct injected; parent: est. 140; read off a plot

Binder	response [RU]
B1	0
B2	8
